According to US20250388678A1, “Methods, Combinations, and Uses for the Treatment of Muscle Invasive Bladder Cancer” (AstraZeneca AB, priority 2024, published 2025):

Assays:
xenograft model = settings: via a T-cell dependent mechanism; cited from earlier work
[1] = system: muscle-invasive bladder cancer; experiment: NIAGARA phase III study: pathological complete response (pCR) at radical cystectomy; assay type: in vivo, human
Protocol: (§1) Dual primary efficacy endpoints evaluated in this study were event-free survival (EFS; per blinded independent central review [BICR]) and pathological complete response (pCR; evaluated centrally). Therefore, if either the EFS endpoint or pCR endpoint was achieved, the study was considered a success.
Primary tumors and sampled lymph nodes were assessed for pathological response to neoadjuvant treatment by central pathology review using recommendations from the IASLC.
pCR efficacy assessment was accomplished by pathological review of radical cystectomy samples. EFS efficacy assessment were assessed by either RECIST 1.1 on imaging scans by pathology on biopsy samples if required.

PD-L1 = PD-L1 (Homo sapiens, UniProt Q9NZQ7); settings: in vitro; cited from earlier work
[2] = NIAGARA phase III study: adverse events and immune-mediated adverse events; assay type: in vivo
Source text: Adverse Events (AEs), Serious Adverse Events (SAE), and immune-mediated adverse events (imAE) were collected from the time of the patient signing the informed consent form until follow-up period as completed (90 days after last dose of treatment (Arm 1) or adjuvant phase study visits (Arm 2). Tables 3 and 4 outline the variables collected for adverse events and severe adverse events.
AESIs for durvalumab include but are not limited to events with a potential inflammatory or immune-mediated mechanism and which may require more frequent monitoring and/or interventions such as steroids, immunosuppressants, and/or hormone replacement therapy. These AESIs are closely monitored in clinical studies with durvalumab monotherapy and combination therapy. An imAE is defined as an AESI that is associated with drug exposure, required the use of systemic steroids or other immunosuppressants and/or endocrine therapy for specific endocrine events, is consistent with an immune-mediated MOA, and where there is no clear alternate etiology.
Serologic, immunologic, and histologic (biopsy) data, as appropriate, were used to support an imAE diagnosis. Appropriate efforts were made to rule out neoplastic, infectious, metabolic, toxin, or other etiologic causes of the imAE.
The overall safety profile is consistent with the known safety profile of durvalumab and chemotherapy. The addition of durvalumab to chemotherapy had no detrimental impact on backbone chemotherapy administration. AEs leading to treatment discontinuation in neoadjuvant phase were balanced between the two arms. The number of patients not undergoing radical surgery because of AEs due to neoadjuvant treatment was balanced in both arms. Rates of grade 3 or 4 AEs and AEs with outcome of death were similar between the two arms (See Table 6). The overall study period included AEs that occurred between the first dose of study treatment, and whichever occurred first: 1) 90 days after the last dose of treatment, surgery, or last adjuvant visit; 2) date of first dose of subsequent anti-cancer therapy; or 3) data cut-off date.

[3] = system: muscle-invasive bladder cancer; experiment: NIAGARA phase III study: survival efficacy endpoints (EFS, OS, MFS, DSS, DFS); assay type: in vivo, human
Source text: The NIAGARA (NCT03732677) study described herein is a phase III, randomized, open-label, multi-center global study of durvalumab in combination with neoadjuvant gemcitabine+cisplatin before cystectomy (surgery to remove the bladder) followed by durvalumab as adjuvant monotherapy in patients with histologically or cytologically documented, resectable muscle-invasive bladder cancer and transitional cell carcinoma of the urothelium.
The study enrolled 1530 patients and randomized 1063 of those the patients in a 1:1 ratio to receive durvalumab+Gemcitabine+Cisplatin (D+G+C) combination therapy every three weeks (q3w) (Arm 1) or G+C combination therapy q3w (Arm 2) for 4 cycles of neoadjuvant chemotherapy prior to radical cystectomy. Patients started adjuvant durvalumab or placebo administration following surgery as soon as clinically feasible and within 42-120 days following surgery from surgery. Following radical cystectomy and during adjuvant therapy, patients in Arm 1 received durvalumab monotherapy every 4 weeks (q4w) for 8 additional cycles, and patients in Arm 2 received no adjuvant treatment.
Patients received a combination therapy comprising 1500 mg durvalumab or placebo via intravenous (IV) infusion q3w for up to a maximum of 4 cycles prior to surgery and a platinum therapy consisting of cisplatin and gemcitabine, the dose dependent on renal function. Patients having a creatinine clearance rate of about ≥60 mL/min, were administered cisplatin at a dose of about 70 mg/m^2 on day 1 of each cycle; and (b) gemcitabine at a dose of about 1000 mg/m^2 on days 1 and 8 of each cycle every 3 weeks (q3w) for a total of four cycles. Patients having a creatinine clearance rate of about ≥40 mL/min to <60 mL/min, were administered cisplatin at a dose of about 70 mg/m^2 on day 1 of each cycle; and (b) gemcitabine at a dose of about 1000 mg/m^2 on days 1 and 8 of each cycle every 3 weeks (q3w) for a total of four cycles.
A radical cystectomy was performed as soon as possible after completion of fourth administration of the combination therapy. The radical cystectomy was performed between […] following the last administration of the combination therapy. Male patients underwent radial cytoprostatectomy and urinary diversion along with bilateral pelvic lymph node dissection. Female patients underwent radical cystectomy. Elective hysterectomy and bilateral salpingectomy was optionally performed if no gross evidence of oncologic involvement was noted by the surgeon. Oophorectomy was omitted if clinically indicated. A urinary diversion creation was established via an ileal conduit, ileal neobladder, Indiana Pouch, or as per local practice. Bilateral pelvic lymph node dissection included following template to include the 1) external iliac, 2) obturator, and 3) internal iliac nodes, and 4) common iliac nodes to the level of the ureteric crossing and included a lymph node classified as cN1 at baseline if one was present. Removal of other nodes is per the surgeon's discretion. The boundaries of the template were the circumflex iliac vein and Cloquet's node, laterally by the genitofemoral nerve, medially by the bladder, posteriorly by the obturator fossa, and proximally to the ureter. Radical cystectomy was mandatory study procedure for all patients unless a patient is only able to undergo a partial cystectomy.
as §1
Secondary endpoints included overall survival (OS), and evaluation of the primary outcome in the PD-L1 high subgroup; pharmacokinetics and immunogenicity; patient-reported outcomes; and safety. […]

[4] = durvalumab arm vs comparator arm
[5] = Safety Analysis Set, number of patients
[6] = ITT, durvalumab arm vs comparator arm
[7] = ITT, of 533 (durvalumab arm) / 530 (comparator arm)
[8] = non-pCR subgroup, durvalumab vs comparator, exploratory post hoc
[9] = pCR subgroup, durvalumab vs comparator, exploratory post hoc
[10] = patients with radical cystectomy and post-RC baseline scan, vs comparator arm

PD-L1, sequence (Q9NZQ7 19-290): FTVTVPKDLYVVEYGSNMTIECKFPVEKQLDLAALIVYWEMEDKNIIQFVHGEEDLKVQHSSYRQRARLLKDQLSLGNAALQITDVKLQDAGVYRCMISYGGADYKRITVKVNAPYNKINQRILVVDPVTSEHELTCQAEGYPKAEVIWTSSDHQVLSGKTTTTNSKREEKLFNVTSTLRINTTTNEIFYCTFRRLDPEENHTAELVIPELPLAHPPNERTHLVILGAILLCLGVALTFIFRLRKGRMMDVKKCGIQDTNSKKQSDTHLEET

Durvalumab: antibody that selectively binds PD-L1; trial arm: durvalumab+gemcitabine+cisplatin before radical cystectomy, then adjuvant durvalumab monotherapy
effect on tumor growth in a xenograft model (xenograft model): inhibits tumor growth
patients with pCR at the time of the radical cystectomy ([1]; ITT): 37.3%
difference in pCR with durvalumab in addition to chemotherapy [1, 4]: ~10%
pCR odds ratio [1, 4]: 1.60
pCR rates among patients that underwent RC ([1]; durvalumab arm=469 patients, comparator arm=441 patients): increased
effect on PD-L1-mediated suppression of human T-cell activation (PD-L1): relieve PD-L1-mediated suppression of human T-cell activation
Anemia (%) ([2]; Safety Analysis Set): (38.7) %
Asthenia (%) ([2]; Safety Analysis Set): (17.5) %
Blood creatinine increased (%) ([2]; Safety Analysis Set): (18.5) %
Constipation (%) ([2]; Safety Analysis Set): (38.7) %
Decreased appetite (%) ([2]; Safety Analysis Set): (26.6) %
Diarrhea (%) ([2]; Safety Analysis Set): (20.6) %
Fatigue (%) ([2]; Safety Analysis Set): (36.0) %
Nausea (%) ([2]; Safety Analysis Set): (53.6) %
Neutropenia (%) ([2]; Safety Analysis Set): (25.8) %
Neutrophil count decreased (%) ([2]; Safety Analysis Set): (15.3) %
Patients with any AE (%) ([2]; Safety Analysis Set): (99.4) %
Pruritis (%) ([2]; Safety Analysis Set): (15.1) %
Pyrexia (%) ([2]; Safety Analysis Set): (20.8) %
Urinary tract infection (%) ([2]; Safety Analysis Set): (30.0) %
Vomiting (%) ([2]; Safety Analysis Set): (19.2) %
Anemia, number [2, 5]: 205
Asthenia, number [2, 5]: 93
Blood creatinine increased, number [2, 5]: 98
Constipation, number [2, 5]: 205
Decreased appetite, number [2, 5]: 141
Diarrhea, number [2, 5]: 109
Fatigue, number [2, 5]: 191
Nausea, number [2, 5]: 284
Neutropenia, number [2, 5]: 137
Neutrophil count decreased, number [2, 5]: 81
Patients with any AE, number [2, 5]: 527
Pruritis, number [2, 5]: 80
Pyrexia, number [2, 5]: 110
Urinary tract infection, number [2, 5]: 159
Vomiting, number [2, 5]: 102
AEs leading to discontinuation of NAC, % ([2]; in vivo): (13.6) %
AEs leading to discontinuation of adjuvant durvalumab, % ([2]; in vivo): (7.8) %
AEs leading to discontinuation of neoadjuvant durvalumab, % ([2]; in vivo): (9.4) %
AEs leading to patient not undergoing RC, % ([2]; in vivo): (1.1) %
additional imAEs: dermatitis/rash, renal events, diarrhea/colitis, pneumonitis (each) ([2]; in vivo): ≤ 2%
imAE hyperthyroid events ([2]; in vivo): 3%
imAE hypothyroid events ([2]; in vivo): 10%
imAEs resolved at data cutoff, number of patients ([2]; of 111 (durvalumab arm) / 16 (comparator arm)): 45 patients
imAEs reported, number of patients ([2]; of 530 (durvalumab arm) / 526 (comparator arm)): 111 patients
imAEs resolved at data cutoff, percent of patients ([2]; of patients with imAEs): 41%
AEs leading to delay in surgery, % ([2]; outside recommended timeframe for RC of 56 days after last dose of NAC): (2.0) %
AEs leading to discontinuation of study treatment, % ([2]; overall study period): (21) %
AEs possibly related to any treatment: Max grade 3 or 4, % ([2]; overall study period): (40.6) %
AEs possibly related to any treatment: Outcome of death, % ([2]; overall study period): (0.6) %
AEs with outcome of death, % ([2]; overall study period): (5.1) %
Any-grade AEs possibly related to any treatment, % ([2]; overall study period): (94.7) %
Any-grade AEs, % ([2]; overall study period): (99.4) %
Any-grade AEs: Max grade 3 or 4, % ([2]; overall study period): (69.4) %
SAEs, % ([2]; overall study period): (61.5) %
imAEs grade 3/4 ([2]; overall study period): 3%
imAEs reported, percent of patients ([2]; overall study period, any grade): 21%
death from bladder cancer, percent of patients ([3]; ITT): 15.9%
patients with distant metastases or death (MFS events), percent ([3]; ITT): 28.5%
EFS Hazard Ratio (HR) ([3]; ITT population, durvalumab+cisplatin+gemcitabine vs cisplatin+gemcitabine, BICR, DCO April 2024): 0.68
probability of 24-month metastasis-free survival ([3]; ITT, 24 months): 75.1%
disease-specific survival hazard ratio (HR) [3, 6]: 0.69
metastasis-free survival hazard ratio (HR) [3, 6]: 0.67
reduction in risk of death from bladder cancer (disease-specific survival) [3, 6]: 31%
reduction in the relative risk of death from any cause (OS) [3, 6]: 25%
reduction in risk of developing a distant metastasis or dying (metastasis-free survival) ([3]; ITT, durvalumab arm vs comparator arm, greater than 40 month follow-up): 33%
OS hazard ratio (HR) ([3]; ITT, durvalumab arm vs comparator arm, interim analysis): 0.75
death from bladder cancer, number of patients [3, 7]: 85 patients
patients with distant metastases or death (MFS events), number [3, 7]: 152 patients
24-month probability of disease-free survival ([3]; ITT, under heading Disease Specific Survival, 24 months): 89.2%
24-month EFS rate ([3]; Non-pCR subgroup): 53%
24-month OS rate ([3]; Non-pCR subgroup): 74%
DFS HR, non-pCR group ([3]; non-pCR group, vs comparator arm, exploratory post hoc): 0.82
reduction in relative risk tumor growth, tumor spreading, not undergoing surgery or dying ([3]; non-pCR patients): 23%
reduction in the relative risk of dying from any cause ([3]; non-pCR patients): 16%
EFS HR, non-pCR patients [3, 8]: 0.77
OS HR, non-pCR patients [3, 8]: 0.84
DFS HR, pCR group ([3]; pCR group, vs comparator arm, exploratory post hoc): 0.58
24-month EFS rate ([3]; pCR subgroup): 92%
24-month OS rate ([3]; pCR subgroup): 96%
EFS HR, patients with pCR [3, 9]: 0.58
OS HR, patients with pCR [3, 9]: 0.72
reduction in the relative risk of dying from any cause ([3]; patients achieving pCR): 28%
reduction in relative risk of tumor growth, tumor spreading, not undergoing surgery or dying ([3]; patients that achieved pCR): 42%
DFS hazard ratio (HR) [3, 10]: 0.69
reduced risk of disease recurrence or death (DFS) [3, 10]: 31%
DFS HR, divergent or other histologic subtypes ([3]; total n=103, vs comparator arm): 0.45
